# Numbering of substitutions follows the chain as printed.
# B1: aptamer ID 26(17) (ssRNA)
# RNA: GGGAGACUCGCCAGAGUUGAAAGAAACCCAAAUAAGUGUGCGCAC
# modifications: 2'-F pyrimidines; 2'-OMe purines except 2'-OH at 3,5,19-22,24,26; 5' idT; 3' PEG40GS2 (amino C-6 linker)
# B2: aptamer ID 26(16) (ssRNA)
# RNA: B1 RNA
# modifications: 2'-F pyrimidines; 2'-OMe purines except 2'-OH at 3,5,19-22,24,26; 5' PEG40GS2 (ssH linker); 3' idT
# B3: aptamer ID 26(37) (ssRNA)
# RNA: B1 RNA
# modifications: 2'-F pyrimidines except 2'-OMe at 7; 2'-OMe purines except 2'-OH at 3,19,20,26; PS between 18 and 19; 5' idT and 3' idT
# B4: aptamer ID 26(36) (ssRNA)
# RNA: B1 RNA
# modifications: 2'-F pyrimidines except 2'-OMe at 7; 2'-OMe purines except 2'-OH at 3,19,20,26; PS between 3 and 4; 5' idT and 3' idT
# B5: aptamer ID 46 (ssRNA)
# RNA: GGGAGAACUUCGACCAGAAGUCGAUAACGAACAAAACUCCCAAAUAUGUGCGCAUAC
# modifications: 2'-F at all pyrimidines
# B6: aptamer ID 47 (ssRNA)
# RNA: GGGAGAACUUCGACCAGAGUCGAUAACGAACAAAACUCCCAAAUAUGUGCGCAUACA
# modifications: 2'-F at all pyrimidines
# B7: aptamer ID 26(72) (mixed)
# RNA: B1 RNA
# modifications: 5' PEG80TS4 via C6 amino linker (Tb); 3' idT; 2'-OMe purines except ribo g3,g19,a20,a26; 2'-F c28,c41,c43; dC27,dC29; other pyrimidines 2'-OMe
# B8: aptamer ID 26(55) (mixed)
# RNA: B1 RNA
# modifications: 5' and 3' idT; 2'-OMe purines except ribo g3,g19,a20,a26; 2'-F c27,c28,c41,c43; dC29,dT39; other pyrimidines 2'-OMe
# B9: aptamer ID 57(8) (mixed)
# mixed: GGGAUAAAAAUAGAGTUUGATAAACACCUGUAUUAAAACCC
# modifications: as ID 57 (5' cholesterol; 3' idT; dT16,dT21; 2'-F other pyrimidines and a37,a38; 2'-OMe purines except ribo a4,a7,g30) plus PS between 24 and 25
# B10: aptamer ID 57(2) (mixed)
# mixed: B9 mixed
# modifications: as ID 57 (5' cholesterol; 3' idT; dT16,dT21; 2'-F other pyrimidines and a37,a38; 2'-OMe purines except ribo a4,a7,g30) plus PS between 16 and 17
# B11: aptamer ID 26(68) (ssRNA)
# RNA: B1 RNA
# modifications: 5' PEG80TS2 via ssH linker; 3' idT; 2'-F all pyrimidines; 2'-OMe purines except ribo g3,g19,a20,a26
# B12: aptamer ID 26(69) (ssRNA)
# RNA: B1 RNA
# modifications: 5' PEG40TS4 via ssH linker; 3' idT; 2'-F all pyrimidines; 2'-OMe purines except ribo g3,g19,a20,a26
# B13: aptamer ID 57(7) (mixed)
# mixed: B9 mixed
# modifications: as ID 57 (5' cholesterol; 3' idT; dT16,dT21; 2'-F other pyrimidines and a37,a38; 2'-OMe purines except ribo a4,a7,g30) plus PS between 23 and 24
# B14: aptamer ID 57(6) (mixed)
# mixed: B9 mixed
# modifications: as ID 57 (5' cholesterol; 3' idT; dT16,dT21; 2'-F other pyrimidines and a37,a38; 2'-OMe purines except ribo a4,a7,g30) plus PS between 22 and 23
# B15: aptamer ID 23 (ssRNA)
# RNA: GGGAGAACUUCGCCAGAAGUUUGAAAGAAACCCAAAUAAGUGUGCGCACA
# modifications: 2'-F at all pyrimidines
# B16: aptamer ID 24 (ssRNA)
# RNA: GGGAGAACUUCGCCAGAAGUUUGAAAGAAACCCAAAUAAGUGUGCGCAC
# modifications: 2'-F at all pyrimidines
# B17: aptamer ID 20 (ssRNA)
# RNA: GGGAGAACUUCGCCAGAAGUUUGAAAGAAACCCAAAUAAAGUGUGCGCACA
# modifications: 2'-F at all pyrimidines
# B18: aptamer ID 26(6) (ssRNA)
# RNA: B1 RNA
# modifications: 2'-F pyrimidines; 2'-OMe at 36,38,40,42,44; other purines 2'-OH
# B19: aptamer ID 25 (ssRNA)
# RNA: GGGAGACUCGCCAGAGUUGAAAGAAACCCAAAUAAAGUGUGCGCACA
# modifications: 2'-F at all pyrimidines
# B20: aptamer ID 48 (ssRNA)
# RNA: GGGAGAACUUCGACCAGAGUCGAUAACGAACAAAACUCCCAAAUAUGUGCGCAUAC
# modifications: 2'-F all pyrimidines
# B21: aptamer ID 57 (mixed)
# mixed: B9 mixed
# modifications: 5' cholesterol; 3' idT; dT16,dT21; 2'-F other pyrimidines and a37,a38; 2'-OMe purines except ribo a4,a7,g30
# B22: aptamer ID 33 (ssRNA)
# RNA: GGGAGAACUUCGACCAGAAGUCGAUAACGAACAAAACUCCCAAAGGAAUAUAUGUGCGCAUACAUGGAUCCU
# modifications: 2'-F at all pyrimidines
# B23: aptamer ID 38 (ssRNA)
# RNA: GGGAGAACUUCGACCAGAAGUCGAUAACGAACAAAACUCCCAAAGGAAUAUAUGUGCGCAUAC
# modifications: 2'-F at all pyrimidines
# B24: aptamer ID 5 (ssRNA)
# RNA: GGGAGAACUUCGACCAGAAGUUUGAAAGAAACCCAAAUUAAAAACAGUAUGUGCGCAUACA
# modifications: 2'-F at all pyrimidines
# B25: aptamer ID 7 (ssRNA)
# RNA: B24 RNA with A43G, A44G, C45A
# modifications: 2'-F at all pyrimidines
# B26: aptamer ID 53 (ssRNA)
# RNA: B20 RNA with U24G, A26G, C31A, A32G
# modifications: 2'-F at all pyrimidines
# B27: aptamer ID 2 (ssRNA)
# RNA: GGGAGAACUUCGACCAGAAGUUUGAAAGAAACCCAAAUUAAAGUGAAGUAUGUGCGCAUACAUUCCUCA
# modifications: 2'-F at all pyrimidines
# B28: aptamer ID 31 (ssRNA)
# RNA: GGGAGAACUUCGACCAGAAGUCGAUAACGAACAAAACUCCCAAAGGAAUAUAUGUGCGCAUACAUGGAU
# modifications: 2'-F at all pyrimidines
# B29: aptamer ID 4 (ssRNA)
# RNA: GGGAGAACUUCGACCAGAAGUUUGAAAGAAACCCAAAUUAAAGUGAACAGUAUGUGCGCAUACUGGAUCCUCA
# modifications: 2'-F at all pyrimidines
# B30: aptamer ID 37 (ssRNA)
# RNA: GGGAGAACUUCGACCAGAAGUCGAUAACGAACAAAACUCCCGGAAUAUAUGUGCGCAUACA
# modifications: 2'-F at all pyrimidines
# B31: aptamer ID 34 (ssRNA)
# RNA: GGGAGAACUUCGACCAGAAGUCGAUAACGAACAAAACUCCCAAAGGAAUAUGUGCGCAUACA
# modifications: 2'-F at all pyrimidines
# B32: aptamer ID 35 (ssRNA)
# RNA: B31 RNA with A47U
# modifications: 2'-F at all pyrimidines
# B33: aptamer ID 36 (ssRNA)
# RNA: B31 RNA with G45A, G46A, A47U
# modifications: 2'-F at all pyrimidines
# B34: aptamer ID 6 (ssRNA)
# RNA: GGGAGAACUUCGACCAGAAGUUUGAAAGAAACCCAAAAAAGUGAACAGUAUGUGCGCAUACA
# modifications: 2'-F at all pyrimidines
# B35: aptamer ID 52 (ssRNA)
# RNA: GGGAGAACUUCGACCAGAAGUUUGAAAAAAACCCAAAUUAAAGUAUGUGCGCAUACA
# modifications: 2'-F at all pyrimidines
# B36: aptamer ID 3 (ssRNA)
# RNA: GGGAGAACUUCGACCAGAAGUUUGAAAGAAACCCAAAUUAAAGGAACAGUAUGUGCGCAUACAUGGAUCCUCA
# modifications: 2'-F at all pyrimidines
# B37: aptamer ID 54 (ssRNA)
# RNA: GGGAGAACUUCGACCAGAAGAUUUGAAAAAAACCCAAAUUAAAGUAUGUGCGCAUACA
# modifications: 2'-F at all pyrimidines
# B38: aptamer ID 8 (ssRNA)
# RNA: GGGAGAACUUCGACCAGAAGUUUGAAAGAAACCCAAAUUAAAGUGAACAGAUGUGCGCAUCA
# modifications: 2'-F at all pyrimidines
# B39: aptamer ID 26(61) (ssRNA)
# RNA: B1 RNA
# modifications: 2'-F pyrimidines except 2'-OMe at 7,8,9,11,12,17,18,33,37,45 and LNA at c29; 2'-OMe purines except 2'-OH at 3,19,20,26; 5' idT and 3' idT
# B40: aptamer ID 26(53) (mixed)
# RNA: B1 RNA
# modifications: 2'-F pyrimidines except 2'-OMe at 7,8,9,11,12,17,18,33,37,45; 2'-OMe purines except 2'-OH at 3,19,20 and dA at 26; 5' idT and 3' idT
# B41: aptamer ID 26(71) (ssRNA)
# RNA: B1 RNA
# modifications: 5' PEG80TS4 via C6 amino linker (Tb); 3' idT; 2'-OMe purines except ribo g3,g19,a20,a26; 2'-F c27,c28,c29,c41,c43; other pyrimidines 2'-OMe
# B42: aptamer ID 26(54) (mixed)
# RNA: B1 RNA
# modifications: 5' and 3' idT; 2'-OMe purines except ribo g3,g19,a20,a26; 2'-F c28,u39,c41,c43; dC27,dC29; other pyrimidines 2'-OMe
# Molecular target: T1, NGF (nerve growth factor) (human, UniProt P01138 P01138:122-241)
# Assay: cell_activity; neurite outgrowth, NGF 0.38 nM; not tested by SPR; TF-1 IC50 <0.1 nM
# Settings: tags:; soluble in cell assays; chain copies: 2
# Method: (§1) The neurite outgrowth inhibitory activity of the aptamer obtained in Example 1 was evaluated by using Neuroscreen-1 cell, which is a subclone of PC-12 cells.
# (§2) The cells (2500 cells per well) were cultured for one day in an RPMI-1640 medium containing 2.5% horse serum and 1.25% fetal bovine serum in a 96 well flat-bottom plate coated with collagen type IV. […] Two days later, the cytoplasm and nuclei were stained using Cellomics Neurite Outgrowth Kit (manufactured by Thermo Scientific), and neurite length per cell was measured by Cellomics ArrayScan VTI (manufactured by Thermo Scientific). With the neurite length per cell obtained by the addition of NGF alone as inhibitory activity 0%, and that of the cell obtained by NGF free culture for 2 days as inhibitory activity 100%, the inhibitory activity of the aptamer was calculated from the neurite length per cell obtained by culturing with the addition of NGF and the aptamer in mixture. When the inhibitory activity was 0% or below, ‘0%’ is indicated.
# T1 sequence (P01138 122-241, one chain of several): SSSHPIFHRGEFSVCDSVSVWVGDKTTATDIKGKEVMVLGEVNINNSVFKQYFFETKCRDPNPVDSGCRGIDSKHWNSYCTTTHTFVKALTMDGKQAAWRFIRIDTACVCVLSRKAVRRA
row,Binder,IC50
1,B1,< 0.1 nM
2,B2,< 0.1 nM

# Molecular target: T1, NGF (nerve growth factor)
# Assay: cell_activity; neurite outgrowth, NGF 0.38 nM; SPR binding; TF-1 IC50 >0.3 nM
# Settings: tags: amine-coupled to CM5 chip in SPR; soluble in cell assays; chain copies: 2
# Method: as §1, §2
row,Binder,IC50
1,B3,0.181 nM
2,B4,0.211 nM

# Molecular target: T1, NGF (nerve growth factor)
# Assay: cell_activity; neurite outgrowth, NGF 1.1 nM; SPR binding
# Settings: tags: amine-coupled to CM5 chip in SPR; soluble in cell assays; chain copies: 2
# Method: as §1, §2
row,Binder,IC50
1,B5,2.6 nM
2,B6,2.5 nM

# Molecular target: T1, NGF (nerve growth factor)
# Assay: cell_activity; neurite outgrowth, NGF 0.38 nM; TF-1 IC50 0.075 nM
# Settings: tags: human NGF; chain copies: 2
# Method: as §1, §2
row,Binder,IC50
1,B7,0.219 nM
2,B8,0.087 nM

# Molecular target: T1, NGF (nerve growth factor)
# Assay: cell_activity; neurite outgrowth, NGF 1.1 nM; TF-1 IC50 6.2 nM
# Settings: tags: human NGF; chain copies: 2
# Method: as §1, §2
row,Binder,IC50
1,B9,< 3 nM
2,B10,< 3 nM

# Molecular target: T1, NGF (nerve growth factor)
# Assay: cell_activity; neurite outgrowth, NGF 0.38 nM; TF-1 IC50 0.348 nM
# Settings: tags: human NGF; chain copies: 2
# Method: as §1, §2
row,Binder,IC50
1,B11,0.128 nM
2,B12,0.157 nM

# Molecular target: T1, NGF (nerve growth factor)
# Assay: cell_activity; neurite outgrowth, NGF 1.1 nM; TF-1 IC50 5.3 nM
# Settings: tags: human NGF; chain copies: 2
# Method: as §1, §2
row,Binder,IC50
1,B13,< 3 nM
2,B14,< 3 nM

# Molecular target: T1, NGF (nerve growth factor)
# Assay: cell_activity; neurite outgrowth, NGF 1.1 nM; SPR binding; TF-1 IC50 <1.0 nM
# Settings: tags: amine-coupled to CM5 chip in SPR; soluble in cell assays; chain copies: 2
row,Binder,IC50
1,B15,< 1 nM
2,B16,< 1 nM
3,B17,1 nM
4,B18,< 1 nM
5,B19,< 1 nM

# Molecular target: T1, NGF (nerve growth factor)
# Assay: cell_activity; neurite outgrowth, NGF 1.1 nM
# Settings: tags: human NGF; chain copies: 2
# Method: as §1, §2
row,Binder,IC50
1,B20,1.8 nM
2,B21,< 3 nM

# Molecular target: T1, NGF (nerve growth factor)
# Assay: cell_activity; neurite outgrowth, NGF 1.1 nM; SPR binding; blocks NGF-TrkA
# Settings: tags: amine-coupled to CM5 chip in SPR; soluble in cell assays; chain copies: 2
# Method: as §1, §2
row,Binder,IC50
1,B22,< 3 nM
2,B23,< 3 nM
3,B24,< 3 nM
4,B25,< 3 nM
5,B26,4.7 nM
6,B27,< 3 nM
7,B28,< 3 nM
8,B29,< 3 nM
9,B30,< 3 nM
10,B31,< 3 nM
11,B32,< 3 nM
12,B33,< 3 nM
13,B34,< 3 nM
14,B35,5.9 nM
15,B36,< 3 nM
16,B37,3 nM
17,B38,< 3 nM

# Molecular target: T1, NGF (nerve growth factor)
# Assay: cell_activity; neurite outgrowth, NGF 0.38 nM; SPR binding; TF-1 IC50 0.078 nM
# Settings: tags: amine-coupled to CM5 chip in SPR; soluble in cell assays; chain copies: 2
# Method: as §1, §2
row,Binder,IC50
1,B39,0.112 nM
2,B40,0.128 nM

# Molecular target: T1, NGF (nerve growth factor)
# Assay: cell_activity; neurite outgrowth, NGF 0.38 nM; TF-1 IC50 0.065 nM
# Settings: tags: human NGF; chain copies: 2
# Method: as §1, §2
row,Binder,IC50
1,B41,0.279 nM
2,B42,0.097 nM

# — US20130052176, “APTAMER FOR NGF AND USE THEREOF” (SHIONOGI & CO., LTD, published 2013)
